Substitutions are numbered along the chain they refer to.
B1: H1B1: natural Gardnerella prophage endolysin from strain HMP9231 (protein)
chain: MSKKGIDVSEWQGDIDFNAVKASGVEFVIIRAGYGIGCKDKWFEQNYRKAKTAGLDVGAYWYSYANSGFEAAEEAQSLMNMLSGKSFEYPVYFDLEEKSQLNRGRAFCDSLITSFCNKLEACGYYAGFYTSLSTANNLVSAHVRNRYALWIAQWNTHCNYQGSYGLWQYSSNGSVPGVAGRVDMDYAYVDYPSIIKNAGLNGCKNGGSDQAARTSSIDEVAREVINGAWGNGSTRKQRLTSAGYDYASVQNKVNELLGVKACRKSVDELAREVIRGAWGNGSTRKQRLAQAGYDYDTVQKRVNELL
modifications: EL1_strain_HMP9231
notes: natural Gardnerella prophage endolysin from strain HMP9231
B2: H2B2: natural Gardnerella prophage endolysin from strain Gv18-4 (protein)
chain: MSKRGIDVSEWQGDIDFNAVKASGVEFVIIRAGYGIGCKDKWFEQNYRKAKTCGLDVGAYWYSYANSGFEAAEEAQSCVNMLSGKSFEYPVYFDLEEKSQLNRGRAFCDSLITGFCNKLESCGYYAGFYTSLSTANNLVSAHVRNRYALWIAQWNTHCSYQGSYGLWQYSSSGSVPGVAGRVDMDYAYVDYPSIIKNVGLNGCKNGGSDQAARTSSIDEVAREVINGAWGNGNERKQRLTSAGYDYASVQNKVNELLGVKACRKSVDEIAREVIRGTWGNGSTRKQRLTQAGYDYDTVQKRVNELL
modifications: EL2_strain_Gv18-4
B3: H3B3: natural Gardnerella prophage endolysin from strain Gv18-4 (protein)
chain: MSKKGIDVSVWQGDIDFNSVKASGVEFVIIRAGYGIGHKDKWFEENYRKAKTAGLDVGSYWYSYASSAGEASEEAQSCVNILSGKSFEYPIYFDLEEKSQLNRGRDFCDSLITSFCNKLEACGYYAGFYTSLSVANNLVSSHVRDRYALWIAQWNTHCSYQGSYGLWQYSSSGSVNGIAGRVDMDYAYVDYPSVIKNAGLNGYQNGGSYTAPQTSSIDEVAREVINGDWGNGNDRKNRLISAGYDYASVQNKVNELLGVKAYRKSVDELAREVIRGTWGNGSMRKHRLTQAGYDYDAVQKRVNELL
modifications: EL3_strain_Gv18-4
B4: H4B4: natural Gardnerella prophage endolysin from strain Gv5-1 (protein)
chain: MSKKGIDVSEWQGDIDFNAVKASGVEFVIIRAGYGIGCKDKWFEQNYRKAKTCGLDVGAYWYSYANSGFEAAEEAQSCVNMLSGKSFEYPVYFDLEEKSQLNRGRAFCDSLITSFCSKLETYGYYAGFYTSLSVVNNLVSAHVRDRYALWIAQWNTHCSYQGSYGLWQYSSSGSVPGVAGRVDMDYAYVDYPSIIKNVGLNGCKNGGSDQATRTSSIDEVAREVINGAWGNGNERKQRLTSAGYDYASVQNKVNKLLGVKAYRKSVDELAREVIRGTWGNGNERKQRLAQAGYDYDTVQKRVNELL
modifications: EL4_strain_Gv5-1
B5: H5B5: natural Gardnerella prophage endolysin from strain JCP7276 (protein)
chain: MSKKGIDVSEWQGDIDFNAVKASGVEFVIIRAGYGIGCKDKWFEQNYRKAKTAGLDVGAYWYSYANSSSEAAEEAQSCANMLSGKSFEYPVYFDLEEKSQLNRGRAFCDSLITGFCSKLEACGYYAGFYTSLSTANNLVSAHVRNRYALWIAQWNTHCSYQGSYGLWQYSSNGSVPGVAGRVDMDYAYKDYPSIIKNAGLNGCKNGGSDQAARTSSIDEVAREVINGAWGNGNERKQRLTQAGYDYTSVQNKVNKLLGVKACRKSVDELAREVIRGTWGNGNERKNRLTQAGYDYDTVQKRVNELL
modifications: EL5_strain_JCP7276
notes: natural Gardnerella prophage endolysin from strain JCP7276
B6: H7B7: natural Gardnerella prophage endolysin from strain AMD (protein)
chain: B5 chain with S68A, G114S, A121T, C122Y, A141S, N172S
modifications: EL7_strain_AMD
notes: natural Gardnerella prophage endolysin from strain AMD
B7: H10B10: natural Gardnerella prophage endolysin from strain G30-4 (protein)
chain: MSKRGIDVSVWQGDIDFNAVKASGVEFVIIRAGYGIGHKDKWFEENYRKAKTVGLDVGAYWYSYASSAGEASEEAQSCVNILSGKSFEYPVYFDLEEKSQLNRGRDFCDSLITSFCNKLEACGYYAGFYTSLSVANNLVSSHVRDRYALWIAQWNTHCSYQGSYGLWQYSSSGSVNGIAGRVDMDYAYVDYPSVIKNAGLNGYKNGGSYTAPQISSIDEVAREVINGDWGNGNERKQRLTSAGYDYASVQNKVNELLGVKAYRKSVDELAREVIRGTWGNGSTRKQRLTQAGYDYNAVQKRVNELL
modifications: EL10_strain_G30-4

Assays:
[1] = test system: G. piotii strain Gv_17; assay: Quantitative reduction in viable CFU assay in bacterial suspension; type: cell-based, Gardnerella piotii; conditions: 5 hours, pH 5.0, anaerobic, 10 ul endolysin (0.2 mg/ml where possible) + 90 ul 5e7 CFU/ml, average of triplicate
Protocol: (§1) The lysis activity on the four main species of Gardnerella of 91 constructs (natural and domain-swapped endolysins) was quantitatively assessed using the method described in Reference Example 2. Briefly, 90 ul 5e7 CFU/ml of the indicated strain were incubated for 5 hours at pH 5.0 under anaerobic conditions with 10 ul endolysin (concentration adjusted to 0.2 mg/ml where possible, see Table 4).
(§2) The results are shown in FIGS. 8A to 8D together with Tables 5A to 5C. In FIGS. 8A to 8D, the logarithmic Y axis depicts the count of surviving cells. The dotted line indicates the limit of detection (LOD) given by plating of 2 ul of the reaction mix (500 CFU/ml). Each combination of the natural 10 H-domains and the natural 9 B-regions was assessed, including the natural endolysins (H1B1, H2B2, H3B3, etc.), plus H6B6. […] The activity of each construct was measured on each of the 4 main Gardnerella species G. vaginalis sensu stricto, G. leopoldii, G. piotii, and G. swidsinkii. All conditions have been measured in triplicate. The survival after 5 hours incubation at pH 5.0 under anaerobic conditions with endolysins vs. buffer was measured by quantitative plating. The values indicate the log 10 of the ratio of surviving CFU for treated vs. untreated cells. The average of the triplicate measurements is used. In tables 5A and 5B, high negative log 10 values, e.g. −6.7, −5.5, −4.8 etc. are associated with high enzymatic activity, while log 10 values closer to zero or even positive log 10 values are associated with low or no enzymatic activity. […] Inversely, a reduction value of −3.7 means a 10^3.7-fold (=5012-fold) reduction of viable CFU in treated sample vs. untreated control.
(§3) Gardnerella cells were recovered from cryo stock by plating on Chocolate Agar plates (Beckton Dickinson) and incubating for 48 h at 37° C. under anaerobic conditions. For Lactobacilli, BD Schaedler/5% sheep blood agar plates were used instead. Colonies were scraped from the plate, resuspended in Hardy Broth or NYC-III-HS-5.0 at the pH as indicated, and the suspension adjusted to OD (610 or 620 nm as indicated) 0.1. It has to be noted that two Tecan Microplate readers, having respectively a 610 nm or 620 nm filter, have been used interchangeably in the experiments. Although it doesn't make any difference for the experiments, the exact wavelength used is specified in each example. If not stated otherwise, 90 μl cell suspension was mixed with 10 μl endolysin solution, for the different species/endolysin combinations, in 384-well plates. OD(610-620 nm as indicated) was measured at the beginning of the reaction and at the end, either as two measurement points or as a continuous kinetic in a Tecan F200 Microplate reader. The reactions were incubated for 5 hours (or otherwise the time indicated) at 37° C. under anaerobic, micro-aerophilic or aerobic conditions as indicated. Anaerobic conditions intend that oxygen was fully depleted from the container in which the bacteria are incubated (Sigma-Aldrich anaerobic jar or sealable lunch box) with an anaerobic sachet, and the lack of oxygen was confirmed with an anaerobic indicator inside the container. Where micro-aerophilic conditions are indicated, the candle-in-a-jar method was used (tea candle lit in an appropriate sealable container, which reduces oxygen levels until the flame dies out). Then each well was diluted in 5 steps (10^−1 to 10^−5) using 96-U-well bottom plates, and 2 μl of each dilution of each reaction mix are plated on BD Chocolate agar plates or BD Schaedler/5% sheep blood agar plates for Gardnerella and Lactobacilli, respectively, for detecting and quantifying surviving CFU. Detection plates were incubated at 37° C. for 48 hours under anaerobic conditions.

[2] = test system: G. swidsinskii strain Gv_23; assay: as above; type: cell-based, Gardnerella swidsinskii; conditions: 5 hours, pH 5.0, anaerobic, 10 ul endolysin (0.2 mg/ml where possible) + 90 ul 5e7 CFU/ml, average of triplicate
Protocol: as §1, §2, §3

[3] = test system: four Gardnerella strains (Gv_9, Gv_11, Gv_17, Gv_23); assay: CFU reduction averaged across the four Gardnerella strains, with activity ranks; type: cell-based; conditions: for average of the log 10 activities of each construct across the four Gardnerella strains: pH 5.0, 5 hours, anaerobic; for activity rank of all endolysins: rank 1-91, based on the data of Table 5B
Protocol: as §1, §2
as §3, with “out).” for “out). Then each well was diluted in 5 steps (10^−1 to 10^−5) using 96-U-well bottom plates, and 2 μl of each dilution of each reaction mix are plated on BD Chocolate agar plates or BD Schaedler/5% sheep blood agar plates for Gardnerella and Lactobacilli, respectively, for detecting and quantifying surviving CFU. Detection plates were incubated at 37° C. for 48 hours under anaerobic conditions.”

Molecule	log 10 of the ratio of surviving CFU for treated vs. untreated cells [1] [log 10]	log 10 of the ratio of surviving CFU for treated vs. untreated cells [2] [log 10]	average of the log 10 activities of each construct across the four Gardnerella strains [3] [log 10]	activity rank of all endolysins [3]
B1	−0.9	−3.5	−1.9	44
B2	−2.5	−5.4	−2.6	25
B3	−1.5	−5.4	−3.0	13
B4	−0.4	−2.0	−0.8	76
B5	−0.1	−0.1	0.1	87
B6	−1.2	−3.2	−2.0	40
B7	−2.4	−5.5	−3.3	6

Source: patent US20220315908A1, “NOVEL GARDNERELLA ENDOLYSINS AND USES THEREOF” (priority 2019, published 2022)
